Target: recombinant, reconstituted histone H3/H4 tetramers (Xenopus laevis, UniProt P84233;P62799)
Experiment: pull-down

binding result: binds
B1: GST-tagged full-length Ioc4 (natural protein)
chain: MSEAIFQPTDIVLAKVKGFSAWPAMIIPNELIPDNILKTKPVSVHKGKSGSDKKANEDIDADMESEARDREQSEEEEDIEDFGESEANPEKFIIYTPVLKFRKNDTLKSTYCVKFFCDDSYIWVKPMDMKILTSEDCRKWLSGKQRKNKKLIPAYEMAMRGKNGIDIWEFVEYGSYGKPDEEEYVEEEEEENEPEKKAIRPTRSSSRQRQKRASETEKSEGGNSNKRKRVTRSTRQQAIDASEEEEEEEEEKVQEAVRKRPQRTKTKKVVVSKTKPNPKTKAKKEKPKPPKPIKYHFEDDEDWSIVGLGPQDLSIEKTMDPIAKKLSQKKNLEKHVEIKLDLEDKLAGINKLLCDVLCSAINQAVSIKDDFEIILDELQIALDTRGSRNEFITIFQSNNSLLLNFRILFNLRKRELNKWDLWDRFQDIFKHIYSYQFIPDTEDWQLEQNMEIEEMDREKPSFSEDVKEEESKVGA

Reference: article doi:10.1101/2021.02.26.432832 (bioRxiv, 2021)
